Measured values: patent US20240158459A1 (KYVERNA THERAPEUTICS, published 2024)

T1: biotinylated-MADCAM-1 antigen (human, UniProt Q13477 19-317, limits assumed, biotinylated (site not stated))
T1 construct: The BLI paragraph says only 'biotinylated-MADCAM-1 antigen'; also called mucosal addressin cell adhesion molecule 1
T1 sequence (looked up): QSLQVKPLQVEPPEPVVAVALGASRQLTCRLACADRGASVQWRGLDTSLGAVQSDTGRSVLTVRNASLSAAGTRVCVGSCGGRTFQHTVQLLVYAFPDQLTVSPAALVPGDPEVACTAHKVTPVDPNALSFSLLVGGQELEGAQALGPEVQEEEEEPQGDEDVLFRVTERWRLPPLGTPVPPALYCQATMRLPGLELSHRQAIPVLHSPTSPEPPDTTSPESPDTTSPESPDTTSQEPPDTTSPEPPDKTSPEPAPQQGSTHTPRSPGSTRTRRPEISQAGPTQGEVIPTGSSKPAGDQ


Each binder was assayed against T1, biotinylated-MADCAM-1 antigen (assay: BLI, biotinylated MADCAM-1 on streptavidin biosensors, scFv titrated, global 1:1 fit).
Description: Binding affinity (KD) of MADCAM-1 scFv antibodies from Table 2 was measured using biolayer interferometry (See also FIG. 6). Streptavidin biosensors were loaded for 5 seconds with 10 Tg/mL biotinylated-MADCAM-1 antigen followed by acquisition of the baseline signal in phosphate buffer saline supplemented with bovine serum albumin and sodium azide. For the association step loaded probes were incubated for 250 seconds with a titration of anti-MADCAM-1 scFv antibodies at concentrations generally between 0 nM and 2 TM. This was followed by a dissociation step in buffer lacking anti-MADCAM-1 scFv for 250 seconds. Experimental data was normalized to a reference probe and high-frequency noise was removed by Savitzky-Golay filtering. On and off-rate constants were determined using a globally fitted 1:1 binding model.

Kd	koff	kon	Binder
45.4 nM	0.00108 s⁻¹	23800 M⁻¹ s⁻¹	MAdCAM1 scFv 10.7 (scFv, Humanized rabbit-derived scFv, VH-(G4S)3-VL) scFv: EVQLLESGGGLVQPGGSLRLSCAASGIDFSGYHYICWVRQAPGKGLEWVSCIYTVSSGIWYATWAKGRFTISRDNSKNTLYLQMNSLRAEDTAVYYCARDDADVSGYWFDLWGQGTLVTVSSGGGGSGGGGSGGGGSDIQMTQSPSSLSASVGDRVTITCQASQSISNLLAWYQQKPGKAPKLLIYKASTLASGVPSRFSGSGSGTDFTFTISSLQPEDIATYYCQQGITNNGIDHGFGGGTKVEIK
98.3 nM	0.00114 s⁻¹	11600 M⁻¹ s⁻¹	MAdCAM1 scFv 10.3 (scFv, Humanized rabbit-derived scFv, VH-(G4S)3-VL) scFv: EVQLVESGGGLVKPGGSLRLSCAASGIDFSGYHYICWVRQAPGKGLEWVSCIYTVSSGIWYATWAKGRFTISRDNAKNSLYLQMNSLRAEDTAVYYCARDDADVSGYWFDLWGQGTLVTVSSGGGGSGGGGSGGGGSDIQMTQSPSSLSASVGDRVTITCQASQSISNLLAWYQQKPGKAPKLLIYKASTLASGVPSRFSGSGSGTDFTFTISSLQPEDIATYYCQQGITNNGIDHGFGGGTKVEIK
1260 nM	0.00646 s⁻¹	5130 M⁻¹ s⁻¹	MAdCAM1 scFv 10.2 (scFv, Humanized rabbit-derived scFv, VH-(G4S)3-VL) scFv: QVQLVESGGGVVQPGRSLRLSCAASGIDFSGYHYICWVRQAPGKGLEWVACIYTVSSGIWYATWAKGRFTISRDNSTNTLFLQMNSLRAEDTAVYYCARDDADVSGYWFDLWGQGTLVTVSSGGGGSGGGGSGGGGSAIQLTQSPSSLSASVGDRVTITCQASQSISNLLAWYQQKPGKAPKLLIYKASTLASGVPSRFSGSGSGTDFTLTISSLQPEDFATYYCQQGITNNGIDHGFGGGTKVEIK
102 nM	0.00125 s⁻¹	12200 M⁻¹ s⁻¹	MAdCAM1 scFv 10.1 (scFv, Humanized rabbit-derived scFv, VH-(G4S)3-VL) scFv: QVQLVESGGGVVQPGRSLRLSCAASGIDFSGYHYICWVRQAPGKGLEWVACIYTVSSGIWYATWAKGRFTISRDNSTNTLFLQMNSLRAEDTAVYYCARDDADVSGYWFDLWGQGTLVTVSSGGGGSGGGGSGGGGSDIQMTQSPSSLSASVGDRVTITCQASQSISNLLAWYQQKPGKAPKLLIYKASTLASGVPSRFSGSGSGTDFTFTISSLQPEDIATYYCQQGITNNGIDHGFGGGTKVEIK
928 nM	0.00259 s⁻¹	2790 M⁻¹ s⁻¹	MAdCAM1 scFv 10.8 (scFv, Humanized rabbit-derived scFv, VH-(G4S)3-VL) scFv: EVQLLESGGGLVQPGGSLRLSCAASGIDFSGYHYICWVRQAPGKGLEWVSCIYTVSSGIWYATWAKGRFTISRDNSKNTLYLQMNSLRAEDTAVYYCARDDADVSGYWFDLWGQGTLVTVSSGGGGSGGGGSGGGGSAIQLTQSPSSLSASVGDRVTITCQASQSISNLLAWYQQKPGKAPKLLIYKASTLASGVPSRFSGSGSGTDFTLTISSLQPEDFATYYCQQGITNNGIDHGFGGGTKVEIK
85 nM	0.00602 s⁻¹	70800 M⁻¹ s⁻¹	MAdCAM1 scFv 2.1 (scFv, Humanized rabbit-derived scFv, VH-(G4S)3-VL) scFv: QVQLLESGGGLVKPGGSLRLSCAASGFSFSSGYYMCWIRQAPGKGLEWVSCIYADSSYTYYASWAKGRFTISRDNAKNSLYLQMNSLRAEDTAVYYCARSNGDYFYGMDLWGQGTLVTVSSGGGGSGGGGSGGGGSDIQMTQSPSSLSASVGDRVTITCQASQSINSWLSWYQQKPGKAPKLLIYRASTLASGVPSRFSGSGSGTDFTFTISSLQPEDIATYYCQSNYYSTSTAFGGGTKVEIK
329 nM	0.0167 s⁻¹	50800 M⁻¹ s⁻¹	MAdCAM1 scFv 2.2 (scFv, Humanized rabbit-derived scFv, VH-(G4S)3-VL) scFv: QVQLLESGGGLVKPGGSLRLSCAASGFSFSSGYYMCWIRQAPGKGLEWVSCIYADSSYTYYASWAKGRFTISRDNAKNSLYLQMNSLRAEDTAVYYCARSNGDYFYGMDLWGQGTLVTVSSGGGGSGGGGSGGGGSAIQMTQSPSSLSASVGDRVTITCQASQSINSWLSWYQQKPGKAPKLLIYRASTLASGVPSRFSGSGSGTDFTLTISSLQPEDFATYYCQSNYYSTSTAFGGGTKVEIK
